One assay addresses human glucagon receptor (human, UniProt P47871 26-477). The assay can be described thus: cell-based or functional assay.
Assay [1] addresses human glucagon-like peptide 1 receptor (human, UniProt P43220 24-463). The assay can be described thus: cell-based or functional assay.

*1 amine or outer side, *2 acyl side, *3 side chain or, on linkers, in order; H or OH if unused. Where no end group is shown, it is not given here. Side-chain parts run from the residue outwards. [ ]: non-standard residue; d: D form. The star is where a group is joined. γGlu = O=C(O)[C@H](CCC(=O)[*:2])N[*:1]; Palmitoyl = CCCCCCCCCCCCCCCC(=O)*; Ac4c = NC1(C(=O)O)CCC1

Sequence of human glucagon receptor (P47871 26-477): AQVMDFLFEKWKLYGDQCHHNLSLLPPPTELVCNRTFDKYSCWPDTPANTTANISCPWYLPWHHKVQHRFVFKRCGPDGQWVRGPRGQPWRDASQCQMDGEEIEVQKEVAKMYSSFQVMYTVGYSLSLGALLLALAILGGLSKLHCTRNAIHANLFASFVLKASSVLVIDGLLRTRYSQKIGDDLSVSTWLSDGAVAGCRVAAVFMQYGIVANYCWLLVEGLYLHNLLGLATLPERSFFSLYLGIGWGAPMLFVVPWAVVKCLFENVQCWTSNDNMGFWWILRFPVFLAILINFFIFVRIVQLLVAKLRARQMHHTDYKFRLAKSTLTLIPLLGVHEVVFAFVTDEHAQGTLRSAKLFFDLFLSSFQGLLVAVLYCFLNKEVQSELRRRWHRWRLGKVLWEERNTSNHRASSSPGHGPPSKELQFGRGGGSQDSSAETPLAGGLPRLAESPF

B1: Co-agonist Peptide 11 (peptide)
peptide: H[dS]QGTFTSDK([γGlu-γGlu-Palmitoyl])SLYLDERAAQDFVQWLLDT-NH2
modifications: N-terminus assumed
SMILES: CCCCCCCCCCCCCCCC(=O)N[C@@H](CCC(=O)N[C@@H](CCC(=O)NCCCC[C@H](NC(=O)[C@H](CC(=O)O)NC(=O)[C@H](CO)NC(=O)[C@@H](NC(=O)[C@H](Cc1ccccc1)NC(=O)[C@@H](NC(=O)CNC(=O)[C@H](CCC(N)=O)NC(=O)[C@@H](CO)NC(=O)[C@@H](N)Cc1c[nH]cn1)[C@@H](C)O)[C@@H](C)O)C(=O)N[C@@H](CO)C(=O)N[C@@H](CC(C)C)C(=O)N[C@@H](Cc1ccc(O)cc1)C(=O)N[C@@H](CC(C)C)C(=O)N[C@@H](CC(=O)O)C(=O)N[C@@H](CCC(=O)O)C(=O)N[C@@H](CCCNC(=N)N)C(=O)N[C@@H](C)C(=O)N[C@@H](C)C(=O)N[C@@H](CCC(N)=O)C(=O)N[C@@H](CC(=O)O)C(=O)N[C@@H](Cc1ccccc1)C(=O)N[C@H](C(=O)N[C@@H](CCC(N)=O)C(=O)N[C@@H](Cc1c[nH]c2ccccc12)C(=O)N[C@@H](CC(C)C)C(=O)N[C@@H](CC(C)C)C(=O)N[C@@H](CC(=O)O)C(=O)N[C@H](C(N)=O)[C@@H](C)O)C(C)C)C(=O)O)C(=O)O
On to B1, for which the “GCGR EC50 (nM) human; cAMP production (HitHunter cAMP XS) in cells expressing human GCGR, 20% human serum” value (shortened to “GCGR EC50 (nM) human … 20% human serum”) with human glucagon receptor worked out at 0.06 nM. The “GLPR1 EC50 (nM) human; cAMP production (HitHunter cAMP XS) in cells expressing human GLP-1R, 20% human serum” value (from here on “GLPR1 EC50 (nM) human … 20% human serum”) in assay [1] turned out to be 0.06 nM.

B2: Co-agonist Peptide 5 (peptide)
peptide: H[dS]QGTFTSDK([γGlu-γGlu-Palmitoyl])SKYLDARAAQDFVQWLLDT-NH2
modifications: N-terminus assumed
SMILES: CCCCCCCCCCCCCCCC(=O)N[C@@H](CCC(=O)N[C@@H](CCC(=O)NCCCC[C@H](NC(=O)[C@H](CC(=O)O)NC(=O)[C@H](CO)NC(=O)[C@@H](NC(=O)[C@H](Cc1ccccc1)NC(=O)[C@@H](NC(=O)CNC(=O)[C@H](CCC(N)=O)NC(=O)[C@@H](CO)NC(=O)[C@@H](N)Cc1c[nH]cn1)[C@@H](C)O)[C@@H](C)O)C(=O)N[C@@H](CO)C(=O)N[C@@H](CCCCN)C(=O)N[C@@H](Cc1ccc(O)cc1)C(=O)N[C@@H](CC(C)C)C(=O)N[C@@H](CC(=O)O)C(=O)N[C@@H](C)C(=O)N[C@@H](CCCNC(=N)N)C(=O)N[C@@H](C)C(=O)N[C@@H](C)C(=O)N[C@@H](CCC(N)=O)C(=O)N[C@@H](CC(=O)O)C(=O)N[C@@H](Cc1ccccc1)C(=O)N[C@H](C(=O)N[C@@H](CCC(N)=O)C(=O)N[C@@H](Cc1c[nH]c2ccccc12)C(=O)N[C@@H](CC(C)C)C(=O)N[C@@H](CC(C)C)C(=O)N[C@@H](CC(=O)O)C(=O)N[C@H](C(N)=O)[C@@H](C)O)C(C)C)C(=O)O)C(=O)O
On to B2, for which the “GCGR EC50 (nM) human … 20% human serum” value in the assay with human glucagon receptor stood at 0.03 nM. Moreover, in assay [1], the “GLPR1 EC50 (nM) human … 20% human serum” value was found to be 0.033 nM.

B3: Co-agonist Peptide 2 (peptide)
peptide: H[dS]QGTFTSDK([γGlu-γGlu-Palmitoyl])SKYLDVRRAQDFVQWLLDT-NH2
modifications: not fully specified; printed as HsQGTFTSDK(γEγEC16)SKYLDVRRAQDFVQWLLDT-NH2
As for B3, the “GCGR EC50 (nM) human … 20% human serum” value with human glucagon receptor was 0.041 nM. For the same molecule, in assay [1], the “GLPR1 EC50 (nM) human … 20% human serum” value is 0.16 nM.

B4: Co-agonist Peptide 13 (peptide)
peptide: H[Ac4c]QGTFTSDK([γGlu-γGlu-Palmitoyl])SKYLDERAAQDFVQWLLDT-NH2
modifications: N-terminus assumed
SMILES: CCCCCCCCCCCCCCCC(=O)N[C@@H](CCC(=O)N[C@@H](CCC(=O)NCCCC[C@H](NC(=O)[C@H](CC(=O)O)NC(=O)[C@H](CO)NC(=O)[C@@H](NC(=O)[C@H](Cc1ccccc1)NC(=O)[C@@H](NC(=O)CNC(=O)[C@H](CCC(N)=O)NC(=O)C1(NC(=O)[C@@H](N)Cc2c[nH]cn2)CCC1)[C@@H](C)O)[C@@H](C)O)C(=O)N[C@@H](CO)C(=O)N[C@@H](CCCCN)C(=O)N[C@@H](Cc1ccc(O)cc1)C(=O)N[C@@H](CC(C)C)C(=O)N[C@@H](CC(=O)O)C(=O)N[C@@H](CCC(=O)O)C(=O)N[C@@H](CCCNC(=N)N)C(=O)N[C@@H](C)C(=O)N[C@@H](C)C(=O)N[C@@H](CCC(N)=O)C(=O)N[C@@H](CC(=O)O)C(=O)N[C@@H](Cc1ccccc1)C(=O)N[C@H](C(=O)N[C@@H](CCC(N)=O)C(=O)N[C@@H](Cc1c[nH]c2ccccc12)C(=O)N[C@@H](CC(C)C)C(=O)N[C@@H](CC(C)C)C(=O)N[C@@H](CC(=O)O)C(=O)N[C@H](C(N)=O)[C@@H](C)O)C(C)C)C(=O)O)C(=O)O
With B4, the “GCGR EC50 (nM) human … 20% human serum” value with human glucagon receptor came to 0.06 nM. Besides, in assay [1], the “GLPR1 EC50 (nM) human … 20% human serum” value is 0.05 nM.

B5: Co-agonist Peptide 12 (peptide)
peptide: HXQGTFTSDXSKYLDARAAQDFVQWLLDT
modifications: X2 = D-Ser; X10 = para-aminomethyl phenylalanine (pAF) conjugated to γEγEC16; C-terminal amide
For B5, in the assay with human glucagon receptor, the “GCGR EC50 (nM) human … 20% human serum” value is 0.05 nM. The “GLPR1 EC50 (nM) human … 20% human serum” value in assay [1] came out at 0.05 nM.

B6: Co-agonist Peptide 10 (peptide)
peptide: HXQGTFTSDKSKYLDERAAQDFVQWLXDT
modifications: X2 = D-Ser; K10 conjugated to γEγEC16; X27 = methionine sulfone; C-terminal amide
Regarding B6, the “GCGR EC50 (nM) human … 20% human serum” value with human glucagon receptor amounted to 0.02 nM. In addition, in assay [1], the “GLPR1 EC50 (nM) human … 20% human serum” value stood at 0.02 nM.

B7: Co-agonist Peptide 8 (peptide)
peptide: H[dS]QGTFTSDK([γGlu-γGlu-Palmitoyl])SKYLEARAAQDFVQWLLDT-NH2
modifications: N-terminus assumed
SMILES: CCCCCCCCCCCCCCCC(=O)N[C@@H](CCC(=O)N[C@@H](CCC(=O)NCCCC[C@H](NC(=O)[C@H](CC(=O)O)NC(=O)[C@H](CO)NC(=O)[C@@H](NC(=O)[C@H](Cc1ccccc1)NC(=O)[C@@H](NC(=O)CNC(=O)[C@H](CCC(N)=O)NC(=O)[C@@H](CO)NC(=O)[C@@H](N)Cc1c[nH]cn1)[C@@H](C)O)[C@@H](C)O)C(=O)N[C@@H](CO)C(=O)N[C@@H](CCCCN)C(=O)N[C@@H](Cc1ccc(O)cc1)C(=O)N[C@@H](CC(C)C)C(=O)N[C@@H](CCC(=O)O)C(=O)N[C@@H](C)C(=O)N[C@@H](CCCNC(=N)N)C(=O)N[C@@H](C)C(=O)N[C@@H](C)C(=O)N[C@@H](CCC(N)=O)C(=O)N[C@@H](CC(=O)O)C(=O)N[C@@H](Cc1ccccc1)C(=O)N[C@H](C(=O)N[C@@H](CCC(N)=O)C(=O)N[C@@H](Cc1c[nH]c2ccccc12)C(=O)N[C@@H](CC(C)C)C(=O)N[C@@H](CC(C)C)C(=O)N[C@@H](CC(=O)O)C(=O)N[C@H](C(N)=O)[C@@H](C)O)C(C)C)C(=O)O)C(=O)O
Take B7: in the assay with human glucagon receptor, the “GCGR EC50 (nM) human … 20% human serum” value stood at 0.02 nM. For the same molecule, the “GLPR1 EC50 (nM) human … 20% human serum” value in assay [1] turned out to be 0.02 nM.

B8: Co-agonist Peptide 14 (peptide)
peptide: HXQGTXTSDKSKYLDERAAQDFVQWLLDT
modifications: not fully specified; X2 = D-Ser; X6 = threo-β-Phenylserine (tβP); K10 conjugated to γEγEC16; C-terminal amide
On to B8, for which the “GCGR EC50 (nM) human … 20% human serum” value with human glucagon receptor stood at 1.04 nM. Further, the “GLPR1 EC50 (nM) human … 20% human serum” value in assay [1] stood at 1.02 nM.

B9: Co-agonist Peptide 1 (peptide)
peptide: H[dS]QGTFTSDK([γGlu-Palmitoyl])SKYLDARAAQDFVQWLLDT-NH2
modifications: N-terminus assumed
SMILES: CCCCCCCCCCCCCCCC(=O)N[C@@H](CCC(=O)NCCCC[C@H](NC(=O)[C@H](CC(=O)O)NC(=O)[C@H](CO)NC(=O)[C@@H](NC(=O)[C@H](Cc1ccccc1)NC(=O)[C@@H](NC(=O)CNC(=O)[C@H](CCC(N)=O)NC(=O)[C@@H](CO)NC(=O)[C@@H](N)Cc1c[nH]cn1)[C@@H](C)O)[C@@H](C)O)C(=O)N[C@@H](CO)C(=O)N[C@@H](CCCCN)C(=O)N[C@@H](Cc1ccc(O)cc1)C(=O)N[C@@H](CC(C)C)C(=O)N[C@@H](CC(=O)O)C(=O)N[C@@H](C)C(=O)N[C@@H](CCCNC(=N)N)C(=O)N[C@@H](C)C(=O)N[C@@H](C)C(=O)N[C@@H](CCC(N)=O)C(=O)N[C@@H](CC(=O)O)C(=O)N[C@@H](Cc1ccccc1)C(=O)N[C@H](C(=O)N[C@@H](CCC(N)=O)C(=O)N[C@@H](Cc1c[nH]c2ccccc12)C(=O)N[C@@H](CC(C)C)C(=O)N[C@@H](CC(C)C)C(=O)N[C@@H](CC(=O)O)C(=O)N[C@H](C(N)=O)[C@@H](C)O)C(C)C)C(=O)O
Consider B9, for which the “GCGR EC50 (nM) human … 20% human serum” value with human glucagon receptor stood at 0.042 nM. Further, the “GLPR1 EC50 (nM) human … 20% human serum” value in assay [1] amounted to 0.048 nM.

B10: Comparator Co-agonist Peptide 6 (peptide)
peptide: HXQGTFTSDKSKYLDERAAQDFVQWLLDT
modifications: X2 = D-Ser; K10 conjugated to γEγEC16; C-terminal amide
In the case of B10, the “GCGR EC50 (nM) human … 20% human serum” value in the assay with human glucagon receptor was 0.009 nM. Further, in assay [1], the “GLPR1 EC50 (nM) human … 20% human serum” value was determined as 0.007 nM.

B11: Co-agonist Peptide 7 (peptide)
peptide: Ac-HAQGTFTSDK([γGlu-γGlu-C16])SKYLDERAAQDFVQWLLDT-NH2
For the molecule B11, the “GCGR EC50 (nM) human … 20% human serum” value with human glucagon receptor stood at 0.07 nM. Moreover, the “GLPR1 EC50 (nM) human … 20% human serum” value in assay [1] came out at 0.07 nM.

B12: Co-agonist Peptide 9 (peptide)
peptide: HXQGTXTSDKSKYLDERAAQDFVQWLLDT
modifications: X2 = D-Ser; X6 = p-fluoro phenylalanine (pFF); K10 conjugated to γEγEC16; C-terminal amide
B12: in the assay with human glucagon receptor, the “GCGR EC50 (nM) human … 20% human serum” value was found to be 0.05 nM. For the same molecule, the “GLPR1 EC50 (nM) human … 20% human serum” value in assay [1] amounted to 0.06 nM.

The values are drawn from patent publication US20170360893A1 (Merck Sharp & Dohme, published 2017).
